From patent publication US20250197499A1 (STEALTH IO, published 2025)
Each block holds one binder with its values, some of them ahead of it.

How the values were obtained:
[1] = target: T1, Recombinant human PD-L1-His tag (ACROBiosystems, #PD1-H5229) (human, UniProt Q9NZQ7 19-238); experiment: Octet RED96e; PD-L1-His loaded at 10 µg/ml on HIS1K sensor; sample 55,6 nM
T1 construct: Bought protein; also called sPD-L1; human PD-L1-His tag protein; not shown: His tag
Description: (§1) FIG. 3a is a graph of Octet binding studies on sPD-L1. Recombinant human PD-L1-His tag (ACROBiosystems, #PD1-H5229) was loaded to His-sensor (HIS1K (Anti-Penta-His)) at 10 μg/ml and the binding of each construct was evaluated by Octet RED96e.
(§2) FIG. 3c is a graph depicting the KD values of anti-CD28/sPD-1 constructs on human PD-L1-His tag protein by Octet RED96e. The equilibrium dissociation constant (KD) is calculated as the ratio koff/kₒₙ (with koff:dissociation rates, and kₒₙ:association rates).
(§3) Anti-CD28/sPD-1 antibody fusion constructs were assessed for their ability to bind PD-1 ligands, PD-L1 and PD-L2 by Octet RED96e. Recombinant human PD-L1-His tag (ACROBiosystems, #PD1-H5229) or recombinant human PD-L2-His tag (ACROBiosystems, #PD2-H5220) were loaded to His-sensor (HIS1 K (Anti-Penta-His)) at 10 μg/ml. […] FIG. 3c is a summary of affinity (measured as Kd, M) for each construct on human PD-L1. […] FIG. 4c is a summary of affinity (measured as Kd, M) for each construct on human PD-L2.

[2] = target: T2, Recombinant human PD-L2-His tag (ACROBiosystems, #PD2-H5220) (human, UniProt Q9BQ51 20-219); experiment: Octet RED96e, PD-L2-His on HIS1K sensor
T2 construct: Bought protein; also called sPD-L2; human PD-L2-His tag protein; not shown: His tag
T2 sequence (looked up): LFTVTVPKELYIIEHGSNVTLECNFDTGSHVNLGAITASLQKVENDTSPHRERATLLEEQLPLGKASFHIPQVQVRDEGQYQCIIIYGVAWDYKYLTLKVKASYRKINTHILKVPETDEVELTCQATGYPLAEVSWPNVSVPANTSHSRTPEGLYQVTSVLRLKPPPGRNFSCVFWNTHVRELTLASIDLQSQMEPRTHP
Description: (§4) FIG. 4a is a graph of Octet binding studies on sPD-L2. Recombinant human PD-L2-His tag (ACROBiosystems, #PD2-H5220) was loaded to His-sensor (HIS1 K (Anti-Penta-His)) at 10 μg/ml and the binding of each construct was evaluated by Octet RED96e.
(§5) FIG. 4c is a graph depicting the KD values of anti-CD28/sPD-1 constructs on human PD-L2-His tag protein by Octet RED96e. The equilibrium dissociation constant (KD) is calculated as the ratio koff/kₒₙ (with koff:dissociation rates, and kₒₙ:association rates).
as §3

[3] = target: T2, Recombinant human PD-L2-His tag …; experiment: Octet RED96e; PD-L2-His loaded at 10 µg/ml on HIS1K sensor; sample 277,8 nM
Description: as §4, §5, §3

[4] = target: T1, Recombinant human PD-L1-His tag …; experiment: Octet RED96e; PD-L1-His loaded at 10 µg/ml on HIS1K sensor; sample 277,8 nM
Description: as §1, §2, §3

[5] = target: T2, Recombinant human PD-L2-His tag …; experiment: Octet RED96e; PD-L2-His loaded at 10 µg/ml on HIS1K sensor; sample 55,6 nM
Description: as §4, §5, §3

[6] = target: T1, Recombinant human PD-L1-His tag …; experiment: Octet RED96e, PD-L1-His on HIS1K sensor
Description: as §1, §2, §3

[7] = target: T2, Recombinant human PD-L2-His tag …; experiment: Octet RED96e; PD-L2-His loaded at 10 µg/ml on HIS1K sensor; sample 117,6 nM
Description: as §4, §5, §3

[8] = target: T3, Recombinant human sCD28 Fc-fusion protein (PeproTech, #310-34) (human, UniProt P10747 19-152); experiment: Octet RED96e; sCD28 Fc-fusion loaded at 2,5 µg/ml on protA sensor; sample 588,2 nM; control without CD28-binding Fab
T3 construct: Bought protein; also called soluble CD28; not shown: Fc part of the bought fusion; not described
Description: (§6) FIG. 5a is a graph of Octet binding studies on sCD28. Recombinant human sCD28 Fc-fusion protein (PeproTech, #310-34) was loaded to protA sensor at 2.5 μg/ml and the binding of each construct was evaluated by Octet RED96e.
(§7) FIG. 5c is a graph depicting the KD values of anti-CD28/sPD-1 constructs on human sCD28 Fc-fusion protein by Octet RED96e. The equilibrium dissociation constant (KD) is calculated as the ratio koff/kₒₙ (with koff:dissociation rates, and kₒₙ:association rates).
(§8) Anti-CD28/sPD-1 antibody fusion constructs were assessed for their ability to bind CD28 by Octet RED96e. Recombinant human sCD28 Fc-fusion protein (PeproTech, #310-34) was loaded to protA sensor at 2.5 μg/ml. […] FIG. 5c is a summary of affinity (measured as Kd, M) for each construct on human CD28.

[9] = target: T1, Recombinant human PD-L1-His tag …; experiment: Octet RED96e; PD-L1-His loaded at 10 µg/ml on HIS1K sensor; sample 117,6 nM
Description: as §1, §2, §3

[10] = target: T2, Recombinant human PD-L2-His tag …; experiment: Octet RED96e; PD-L2-His loaded at 10 µg/ml on HIS1K sensor; sample 588,2 nM
Description: as §4, §5, §3

[11] = target: T1, Recombinant human PD-L1-His tag …; experiment: Octet RED96e; PD-L1-His loaded at 10 µg/ml on HIS1K sensor; sample 588,2 nM
Description: as §1, §2, §3

[12] = target: T3, Recombinant human sCD28 Fc-fusion …; experiment: Octet RED96e; sCD28 Fc-fusion loaded at 2,5 µg/ml on protA sensor; sample 117,6 nM; control without CD28-binding Fab
Description: as §6, §7, §8

Kd [1]: 21.7 nM | koff [1]: 0.0133 s⁻¹ | kon [1]: 614000 M⁻¹ s⁻¹ | Kd [2]: ~10 nM | Kd [3]: 18.1 nM | koff [3]: 0.00314 s⁻¹ | kon [3]: 174000 M⁻¹ s⁻¹ | Kd [4]: 37.5 nM | koff [4]: 0.0159 s⁻¹ | kon [4]: 423000 M⁻¹ s⁻¹ | Kd [5]: 7.73 nM | koff [5]: 0.00268 s⁻¹ | kon [5]: 347000 M⁻¹ s⁻¹ | Kd [6]: ~10 nM
B1: bivalent anti-CD28/sPD-1 wt (bispecific antibody, human IgG1, kappa)
light: DIELTQSPASLAVSLGQRATISCRASESVEYYVTSLMQWYQQKPGQPPKLLIFAASNVESGVPARFSGSGSGTNFSLNIHPVDEDDVAMYFCQQSRKVPYTFGGGTKLEIKRTVAAPSVFIFPPSDEQLKSGTASVVCLLNNFYPREAKVQWKVDNALQSGNSQESVTEQDSKDSTYSLSSTLTLSKADYEKHKVYACEVTHQGLSSPVTKSFNRGEC
heavy: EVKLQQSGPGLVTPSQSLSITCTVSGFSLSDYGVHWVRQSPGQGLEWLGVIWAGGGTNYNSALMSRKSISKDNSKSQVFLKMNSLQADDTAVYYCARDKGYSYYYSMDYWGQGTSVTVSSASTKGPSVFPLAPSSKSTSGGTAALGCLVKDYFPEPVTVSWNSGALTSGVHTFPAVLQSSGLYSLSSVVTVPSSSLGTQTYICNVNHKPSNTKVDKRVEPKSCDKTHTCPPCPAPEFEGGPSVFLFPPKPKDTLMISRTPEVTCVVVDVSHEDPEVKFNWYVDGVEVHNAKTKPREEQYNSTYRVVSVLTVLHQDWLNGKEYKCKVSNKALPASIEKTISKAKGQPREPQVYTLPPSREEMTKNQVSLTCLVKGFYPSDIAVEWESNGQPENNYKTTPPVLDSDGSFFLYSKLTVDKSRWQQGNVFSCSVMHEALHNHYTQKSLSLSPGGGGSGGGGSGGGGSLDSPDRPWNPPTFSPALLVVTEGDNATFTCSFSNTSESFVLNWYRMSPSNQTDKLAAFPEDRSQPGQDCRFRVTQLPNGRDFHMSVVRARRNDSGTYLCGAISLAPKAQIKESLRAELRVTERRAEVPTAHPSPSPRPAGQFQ
notes: Two Fabs of clone 9.3 against CD28, two wild-type sPD-1 fragments; also called Bivalent anti-CD28/sPD-1 Wild type structure; bispecific protein complex A:B-C-X:D-C'-Y

Kd [7]: 1.56 nM | koff [7]: 0.000461 s⁻¹ | kon [7]: 295000 M⁻¹ s⁻¹ | Kd [8]: 17.8 nM | koff [8]: 0.000107 s⁻¹ | kon [8]: 6000 M⁻¹ s⁻¹ | Kd [9]: 2.24 nM | koff [9]: 0.00132 s⁻¹ | kon [9]: 588000 M⁻¹ s⁻¹ | Kd [10]: 0.0118 nM | koff [10]: 5.99e-07 s⁻¹ | kon [10]: 50700 M⁻¹ s⁻¹ | Kd [11]: 0.00629 nM | koff [11]: 6.93e-07 s⁻¹ | kon [11]: 110000 M⁻¹ s⁻¹ | Kd [12]: 2950 nM | koff [12]: 0.00204 s⁻¹ | kon [12]: 692 M⁻¹ s⁻¹
B2: nonvalent (or dummy) Fc/sPD-1 mut (Fc fusion)
chain: DKTHTCPPCPAPEFEGGPSVFLFPPKPKDTLMISRTPEVTCVVVDVSHEDPEVKFNWYVDGVEVHNAKTKPREEQYNSTYRVVSVLTVLHQDWLNGKEYKCKVSNKALPASIEKTISKAKGQPREPQVYTLPPSREEMTKNQVSLTCLVKGFYPSDIAVEWESNGQPENNYKTTPPVLDSDGSFFLYSKLTVDKSRWQQGNVFSCSVMHEALHNHYTQKSLSLSPGGGGSGGGGSGGGGSLDSPDRPWNPPTFSPALLVVTEGDNATFTCSFSNTSESFVLNWYRMSPSNQTDKLAAFPEDRSQPGQDCRFRVTQLPNGRDFHMSVVRARRNDSGTYLCSAISLAPYIQIKESLRAELRVTERRAEVPTAHPSPSPRPAGQFQ
notes: also called Fc/sPD-1 mutated; Fc/sPD-1 mutant construct
